Data reported in patent US11034762 (CENTIVAX, dated 2021).
Where a chain is given by its changes, count along the chain named.

Experiments:
[1] = molecular target: T1, MERS Receptor Binding Domain (RBD) protein (MERS virus, UniProt K9N5Q8 367-606); assay: SPR; clone listed as COV2 only at the 21st table, row 15, column 3
T1 construct: also called Middle East Respiratory Syndrome (MERS) virus
T1 sequence: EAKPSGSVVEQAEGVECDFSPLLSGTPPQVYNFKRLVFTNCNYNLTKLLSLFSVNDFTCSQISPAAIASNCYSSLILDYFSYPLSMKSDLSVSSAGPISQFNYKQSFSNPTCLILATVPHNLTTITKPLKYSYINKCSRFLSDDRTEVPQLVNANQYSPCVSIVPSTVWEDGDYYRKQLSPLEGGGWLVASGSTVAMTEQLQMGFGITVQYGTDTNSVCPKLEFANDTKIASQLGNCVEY

[2] = molecular target: T2, SARS-CoV-1 Receptor Binding Domain (RBD) protein (SARS-CoV-1, UniProt P59594 306-527); assay: as above
T2 construct: also called SARS1

[3] = molecular target: SARS-CoV-2 Receptor Binding Domain (RBD) protein (SARS-CoV-2, UniProt P0DTC2 319-541)
[4] = molecular target: T1, MERS Receptor Binding Domain (RBD) …; assay: SPR; clone listed as COV2 only at the 21st table, row 21, column 3
[5] = molecular target: T2, SARS-CoV-1 Receptor Binding Domain …; assay: as above
[6] = molecular target: T1, MERS Receptor Binding Domain (RBD) …; assay: SPR; clone listed as COV2 only at the 21st table, row 17, column 3
[7] = molecular target: T2, SARS-CoV-1 Receptor Binding Domain …; assay: as above
[8] = molecular target: T1, MERS Receptor Binding Domain (RBD) …; assay: SPR; clone listed as COV2 only at the 21st table, row 23, column 3
[9] = molecular target: T2, SARS-CoV-1 Receptor Binding Domain …; assay: as above
[10] = molecular target: T1, MERS Receptor Binding Domain (RBD) …; assay: SPR; clone listed as COV2 only at the 21st table, row 25, column 3
[11] = molecular target: T2, SARS-CoV-1 Receptor Binding Domain …; assay: as above
[12] = molecular target: T1, MERS Receptor Binding Domain (RBD) …; assay: SPR; clone listed as COV2 only at the 21st table, row 22, column 3
[13] = molecular target: T2, SARS-CoV-1 Receptor Binding Domain …; assay: as above
[14] = molecular target: T1, MERS Receptor Binding Domain (RBD) …; assay: SPR; clone listed as COV2 only at the 21st table, row 26, column 3
[15] = molecular target: T2, SARS-CoV-1 Receptor Binding Domain …; assay: as above
[16] = molecular target: T1, MERS Receptor Binding Domain (RBD) …; assay: SPR; clone listed as COV2 only at the 21st table, row 24, column 3
[17] = molecular target: T2, SARS-CoV-1 Receptor Binding Domain …; assay: as above
[18] = molecular target: T1, MERS Receptor Binding Domain (RBD) …; assay: SPR; clone listed as COV2 only at the 21st table, row 16, column 3
[19] = molecular target: T2, SARS-CoV-1 Receptor Binding Domain …; assay: as above
[20] = molecular target: T1, MERS Receptor Binding Domain (RBD) …; assay: SPR; clone listed as COV2 only at the 21st table, row 14, column 3
[21] = molecular target: T2, SARS-CoV-1 Receptor Binding Domain …; assay: as above
[22] = molecular target: T1, MERS Receptor Binding Domain (RBD) …; assay: SPR; clone listed as COV2 only at the 21st table, row 7, column 3
[23] = molecular target: T2, SARS-CoV-1 Receptor Binding Domain …; assay: as above
[24] = molecular target: T1, MERS Receptor Binding Domain (RBD) …; assay: SPR; clone listed as COV2 only at the 21st table, row 27, column 3
[25] = molecular target: T2, SARS-CoV-1 Receptor Binding Domain …; assay: as above
[26] = molecular target: T1, MERS Receptor Binding Domain (RBD) …; assay: SPR; clone listed as COV2 only at the 21st table, row 19, column 3
[27] = molecular target: T2, SARS-CoV-1 Receptor Binding Domain …; assay: as above

B1: COVID19_P21_A08 (scFv, V domains shown)
VH: QVQLVQSGAEVKKPGSSVKVSCKASGGTFITYWIGWVRQAPGQGLEWMGWINPNSGGTNYAQKFQGRVTITADESTSTAYMELSSLRSEDTAVYYCAGGSGISTPMDVWGQGTLVTVSS
VL: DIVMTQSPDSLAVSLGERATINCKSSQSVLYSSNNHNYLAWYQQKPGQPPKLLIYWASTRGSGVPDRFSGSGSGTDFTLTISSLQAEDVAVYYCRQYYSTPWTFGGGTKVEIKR
binding result [1]: no binding (tested: up to 300 nM)
binding result [2]: no binding (tested: up to 300 nM)
Kd [3]: 13.3 nM
koff [3]: 0.000496 s⁻¹
kon [3]: 37300 M⁻¹ s⁻¹

B2: COVID19_P10_G03 (scFv, V domains shown)
VH: B1 VH with I30S, T31N, Y32S, W33S, G35N, W50R
VL: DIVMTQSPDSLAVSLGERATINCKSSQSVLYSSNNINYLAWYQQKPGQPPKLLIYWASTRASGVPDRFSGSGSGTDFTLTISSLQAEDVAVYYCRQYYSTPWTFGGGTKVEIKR
binding result [4]: no binding (tested: up to 300 nM)
binding result [5]: no binding (tested: up to 300 nM)
Kd [3]: 40.4 nM
koff [3]: 0.00177 s⁻¹
kon [3]: 43800 M⁻¹ s⁻¹

B3: COVID19_P10_D08 (scFv, V domains shown)
VH: B1 VH with I30N, T31S, Y32H, W33A, G35S, G57A, M106V, D107G
VL: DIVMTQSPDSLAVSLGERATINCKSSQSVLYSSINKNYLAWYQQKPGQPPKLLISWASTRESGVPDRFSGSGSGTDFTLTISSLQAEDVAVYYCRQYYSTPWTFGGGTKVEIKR
Kd [3]: 15.2 nM
koff [3]: 0.00107 s⁻¹
kon [3]: 70700 M⁻¹ s⁻¹
binding result [6]: no binding (tested: up to 300 nM)
binding result [7]: no binding (tested: up to 300 nM)

B4: COVID19_P22_F07 (scFv, V domains shown)
VH: QVQLVQSGAEVKKPGSSVKVSCKASGGTFSSYAISWVRQAPGQGLEWMGGIIPIFGSTASYAQKFQGRVTITADESTSTAYMELSSLRSEDTAVYYCAGEWGISTPMDVWGQGTLVTVSS
VL: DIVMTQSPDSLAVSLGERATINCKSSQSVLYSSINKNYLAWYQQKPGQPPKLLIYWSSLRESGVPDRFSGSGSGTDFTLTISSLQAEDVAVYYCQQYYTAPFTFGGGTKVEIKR
binding result [8]: no binding (tested: up to 300 nM)
binding result [9]: no binding (tested: up to 300 nM)
Kd [3]: 6.58 nM
koff [3]: 0.00041 s⁻¹
kon [3]: 63000 M⁻¹ s⁻¹

B5: COVID19_P09_B07 (scFv, V domains shown)
VH: QVQLVQSGAEVKKPGSSVKVSCKASGGTFSSYAISWVRQAPGQGLEWMGGIIPTLGTANYAQKFQGRVTITADESTSTAYMELSSLRSEDTAVYYCAGSWGISTPMDVWGQGTLVTVSS
VL: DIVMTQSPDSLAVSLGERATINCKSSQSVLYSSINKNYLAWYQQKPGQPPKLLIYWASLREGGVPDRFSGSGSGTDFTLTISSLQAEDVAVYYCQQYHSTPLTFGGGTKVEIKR
binding result [10]: no binding (tested: up to 300 nM)
binding result [11]: no binding (tested: up to 300 nM)
Kd [3]: 3.66 nM
koff [3]: 0.000533 s⁻¹
kon [3]: 146000 M⁻¹ s⁻¹

B6: COVID19_P22_E12 (scFv, V domains shown)
VH: B5 VH with S35N, T54V, G56H, A58V, N59D, K63R, F64L, S99E
VL: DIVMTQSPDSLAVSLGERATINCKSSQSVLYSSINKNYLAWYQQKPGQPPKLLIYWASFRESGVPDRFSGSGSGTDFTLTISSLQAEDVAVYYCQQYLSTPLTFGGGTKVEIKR
binding result [12]: no binding (tested: up to 300 nM)
binding result [13]: no binding (tested: up to 300 nM)
Kd [3]: 44 nM
koff [3]: 0.0089 s⁻¹
kon [3]: 200000 M⁻¹ s⁻¹

B7: COVID19_P09_C09 (scFv, V domains shown)
VH: B5 VH with G50I, I52D, T54S, L55G, T57S, A58T, N59S, K63Q, S99G, W100S
VL: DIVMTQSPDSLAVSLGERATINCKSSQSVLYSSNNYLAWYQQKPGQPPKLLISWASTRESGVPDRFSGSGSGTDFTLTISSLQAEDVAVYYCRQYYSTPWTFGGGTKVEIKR
binding result [14]: no binding (tested: up to 300 nM)
binding result [15]: no binding (tested: up to 300 nM)
Kd [3]: 0.99 nM
koff [3]: 0.000261 s⁻¹
kon [3]: 264000 M⁻¹ s⁻¹

B8: COVID19_P09_H08 (scFv, V domains shown)
VH: B5 VH with T54I, L55F, A58T, S99E
VL: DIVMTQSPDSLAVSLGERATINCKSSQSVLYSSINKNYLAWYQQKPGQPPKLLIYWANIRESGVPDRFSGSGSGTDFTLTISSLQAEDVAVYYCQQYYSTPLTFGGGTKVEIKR
binding result [16]: no binding (tested: up to 300 nM)
binding result [17]: no binding (tested: up to 300 nM)
Kd [3]: 3.25 nM
koff [3]: 0.00039 s⁻¹
kon [3]: 120000 M⁻¹ s⁻¹

B9: COVID19_P09_H09 (scFv, V domains shown)
VH: QVQLVQSGAEVKKPGSSVKVSCKASGGTFITYWIYWVRQAPGQGLEWMGIIYPGDGEARYSQKFYGRVTITADESTSTAYMELSSLRSEDTAVYYCAGSGGISTPMDVWGQGTLVTVSS
VL: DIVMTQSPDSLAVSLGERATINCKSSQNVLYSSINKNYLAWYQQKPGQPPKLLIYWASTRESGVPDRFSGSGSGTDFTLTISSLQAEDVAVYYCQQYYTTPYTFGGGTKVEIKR
binding result [18]: no binding (tested: up to 300 nM)
binding result [19]: no binding (tested: up to 300 nM)
Kd [3]: 35.2 nM
koff [3]: 0.0154 s⁻¹
kon [3]: 438000 M⁻¹ s⁻¹

B10: COVID19_P10_C05 (scFv, V domains shown)
VH: B9 VH with Y35G, Y65Q
VL: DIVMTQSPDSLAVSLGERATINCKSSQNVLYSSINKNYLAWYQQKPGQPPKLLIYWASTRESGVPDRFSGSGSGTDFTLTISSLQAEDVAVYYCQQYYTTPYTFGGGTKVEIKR
binding result [20]: no binding (tested: up to 300 nM)
binding result [21]: no binding (tested: up to 300 nM)
Kd [3]: 33.8 nM
koff [3]: 0.0156 s⁻¹
kon [3]: 462000 M⁻¹ s⁻¹

B11: COVID19_P22_E06 (scFv, V domains shown)
VH: B9 VH with T28G, Y35G, G56S, A58T, Y65Q, S99G, G100S, T104S, P105D
VL: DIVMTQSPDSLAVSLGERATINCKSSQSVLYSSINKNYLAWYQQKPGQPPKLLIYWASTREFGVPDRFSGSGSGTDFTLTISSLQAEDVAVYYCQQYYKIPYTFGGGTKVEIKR
binding result [22]: no binding (tested: up to 300 nM)
binding result [23]: no binding (tested: up to 300 nM)
Kd [3]: 42.7 nM
koff [3]: 0.0057 s⁻¹
kon [3]: 130000 M⁻¹ s⁻¹

B12: COVID19_P21_F11 (scFv, V domains shown)
VH: QVQLVQSGAEVKKPGSSVKVSCKASGGTFSSYAISWVRQAPGQGLEWMGIIYPGDSTARYSQKFQGRVTITADESTSTAYMELSSLRSEDTAVYYCAGGSGISTLYDVWGQGTLVTVSS
VL: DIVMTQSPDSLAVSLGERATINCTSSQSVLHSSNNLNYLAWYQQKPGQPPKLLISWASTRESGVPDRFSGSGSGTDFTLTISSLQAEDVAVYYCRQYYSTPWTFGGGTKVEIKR
binding result [24]: no binding (tested: up to 300 nM)
binding result [25]: no binding (tested: up to 300 nM)
Kd [3]: ≤ 1.1 nM
koff [3]: ≤ 5.7e-05 s⁻¹
kon [3]: 52300 M⁻¹ s⁻¹

B13: COVID19_P09_E11 (scFv, V domains shown)
VH: B12 VH with S31N, Y32H, P41Y, S56G, A58T, L105P, Y106M
VL: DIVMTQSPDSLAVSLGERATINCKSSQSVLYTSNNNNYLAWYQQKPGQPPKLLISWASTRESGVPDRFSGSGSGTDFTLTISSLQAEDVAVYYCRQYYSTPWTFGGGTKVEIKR
binding result [26]: no binding (tested: up to 300 nM)
binding result [27]: no binding (tested: up to 300 nM)
Kd [3]: 0.49 nM
koff [3]: 0.000123 s⁻¹
kon [3]: 249000 M⁻¹ s⁻¹
